{"source": "patent US20260184748A1", "about": "(University of Pennsylvania, published 2026)", "binders": {"B1": {"name": "octadecaneuropeptide (ODN) (peptide)", "peptide": "QATVGDVNTDRPGLLDLK", "modifications": "also: synthesised on Rink amide resin, C-terminal amide not given here outright"}}, "assay_in_all_cases": "cell-based or functional assay", "key": {"HTR1E": {"molecular_target": "HTR1E (UniProt P28566 1-365)", "sequence (P28566 whole entry)": "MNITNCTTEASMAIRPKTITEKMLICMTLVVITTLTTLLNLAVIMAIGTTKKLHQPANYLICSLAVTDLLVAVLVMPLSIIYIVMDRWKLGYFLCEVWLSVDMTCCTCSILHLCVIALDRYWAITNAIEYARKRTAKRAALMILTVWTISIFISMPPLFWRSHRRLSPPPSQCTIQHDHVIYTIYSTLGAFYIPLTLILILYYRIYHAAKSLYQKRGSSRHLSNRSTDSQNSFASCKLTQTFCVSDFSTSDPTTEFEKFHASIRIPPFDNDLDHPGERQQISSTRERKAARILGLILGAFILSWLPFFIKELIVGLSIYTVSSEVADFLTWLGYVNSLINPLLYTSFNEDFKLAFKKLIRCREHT"}, "MCHR1": {"molecular_target": "MCHR1 (UniProt Q99705 1-353)", "sequence (Q99705 whole entry)": "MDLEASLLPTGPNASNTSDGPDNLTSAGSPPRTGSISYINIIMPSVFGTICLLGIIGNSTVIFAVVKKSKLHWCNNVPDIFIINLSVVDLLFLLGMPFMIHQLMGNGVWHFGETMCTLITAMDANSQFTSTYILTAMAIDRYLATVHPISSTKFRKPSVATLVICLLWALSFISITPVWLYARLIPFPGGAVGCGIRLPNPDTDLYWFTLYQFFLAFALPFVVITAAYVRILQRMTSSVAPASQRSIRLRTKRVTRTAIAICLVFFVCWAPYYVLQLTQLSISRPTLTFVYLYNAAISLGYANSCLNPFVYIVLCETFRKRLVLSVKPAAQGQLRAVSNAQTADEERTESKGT"}, "NMBR": {"molecular_target": "NMBR (UniProt P28336 1-390)", "sequence (P28336 whole entry)": "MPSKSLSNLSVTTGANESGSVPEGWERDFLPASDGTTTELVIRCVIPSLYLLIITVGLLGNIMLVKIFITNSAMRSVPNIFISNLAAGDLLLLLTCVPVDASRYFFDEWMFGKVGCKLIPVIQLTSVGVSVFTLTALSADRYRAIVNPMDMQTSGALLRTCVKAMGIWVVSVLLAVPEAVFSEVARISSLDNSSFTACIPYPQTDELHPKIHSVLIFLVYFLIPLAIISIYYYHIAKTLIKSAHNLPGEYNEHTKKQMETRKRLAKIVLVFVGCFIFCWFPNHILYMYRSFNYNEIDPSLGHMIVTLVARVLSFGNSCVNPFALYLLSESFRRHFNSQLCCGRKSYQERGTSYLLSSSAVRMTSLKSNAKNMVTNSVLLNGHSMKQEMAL"}, "NPBWR2": {"molecular_target": "NPBWR2 (UniProt P48146 1-333)", "sequence (P48146 whole entry)": "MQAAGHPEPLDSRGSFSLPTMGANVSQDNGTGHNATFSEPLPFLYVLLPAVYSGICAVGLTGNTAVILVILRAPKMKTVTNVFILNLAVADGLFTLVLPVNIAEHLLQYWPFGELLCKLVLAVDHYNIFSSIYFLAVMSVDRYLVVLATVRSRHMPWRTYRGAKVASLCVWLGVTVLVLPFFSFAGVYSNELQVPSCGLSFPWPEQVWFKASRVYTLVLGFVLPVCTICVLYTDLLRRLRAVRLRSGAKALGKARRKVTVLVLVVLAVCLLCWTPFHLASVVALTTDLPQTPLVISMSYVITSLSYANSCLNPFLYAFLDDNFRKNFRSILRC"}, "AVPR1A": {"molecular_target": "AVPR1A (UniProt P37288 1-418)", "sequence (P37288 whole entry)": "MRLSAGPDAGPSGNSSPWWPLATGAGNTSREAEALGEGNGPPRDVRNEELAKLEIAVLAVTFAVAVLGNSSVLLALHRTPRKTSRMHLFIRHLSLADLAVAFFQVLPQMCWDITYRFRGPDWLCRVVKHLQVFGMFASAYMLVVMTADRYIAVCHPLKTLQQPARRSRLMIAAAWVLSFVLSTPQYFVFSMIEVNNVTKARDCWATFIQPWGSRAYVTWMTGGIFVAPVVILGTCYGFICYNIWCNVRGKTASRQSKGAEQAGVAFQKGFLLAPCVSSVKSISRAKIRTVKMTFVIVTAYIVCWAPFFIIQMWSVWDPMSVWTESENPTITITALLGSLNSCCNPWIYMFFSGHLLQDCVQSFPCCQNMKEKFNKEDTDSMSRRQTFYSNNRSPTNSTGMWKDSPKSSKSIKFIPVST"}, "NPY2R": {"molecular_target": "T1, NPY2R (UniProt P49146 1-381)", "T1 sequence (looked up)": "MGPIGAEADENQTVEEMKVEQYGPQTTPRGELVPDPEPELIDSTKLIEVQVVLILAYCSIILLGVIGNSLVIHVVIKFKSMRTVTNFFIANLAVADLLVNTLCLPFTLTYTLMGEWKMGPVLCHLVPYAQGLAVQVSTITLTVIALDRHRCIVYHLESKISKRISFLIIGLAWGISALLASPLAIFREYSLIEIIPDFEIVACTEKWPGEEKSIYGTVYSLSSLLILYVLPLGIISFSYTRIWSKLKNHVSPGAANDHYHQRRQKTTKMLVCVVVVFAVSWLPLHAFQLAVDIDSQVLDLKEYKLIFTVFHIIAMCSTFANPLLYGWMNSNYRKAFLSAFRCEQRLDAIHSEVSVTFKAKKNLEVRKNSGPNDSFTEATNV"}, "OPRM1": {"molecular_target": "OPRM1 (UniProt P35372 1-400)", "sequence (P35372 whole entry)": "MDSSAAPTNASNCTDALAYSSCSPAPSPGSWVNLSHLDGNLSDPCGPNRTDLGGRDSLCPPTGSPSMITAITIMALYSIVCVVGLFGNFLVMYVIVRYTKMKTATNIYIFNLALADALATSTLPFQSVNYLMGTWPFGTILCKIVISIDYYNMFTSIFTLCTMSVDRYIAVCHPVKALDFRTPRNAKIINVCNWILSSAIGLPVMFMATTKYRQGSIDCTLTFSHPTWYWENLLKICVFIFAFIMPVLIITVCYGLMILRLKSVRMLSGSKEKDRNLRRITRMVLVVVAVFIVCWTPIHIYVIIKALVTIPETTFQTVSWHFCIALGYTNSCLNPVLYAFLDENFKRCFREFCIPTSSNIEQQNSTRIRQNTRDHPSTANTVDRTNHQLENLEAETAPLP"}, "TBXA2R": {"molecular_target": "T2, TBXA2R (UniProt P21731 1-343, limits assumed)", "T2 sequence (looked up)": "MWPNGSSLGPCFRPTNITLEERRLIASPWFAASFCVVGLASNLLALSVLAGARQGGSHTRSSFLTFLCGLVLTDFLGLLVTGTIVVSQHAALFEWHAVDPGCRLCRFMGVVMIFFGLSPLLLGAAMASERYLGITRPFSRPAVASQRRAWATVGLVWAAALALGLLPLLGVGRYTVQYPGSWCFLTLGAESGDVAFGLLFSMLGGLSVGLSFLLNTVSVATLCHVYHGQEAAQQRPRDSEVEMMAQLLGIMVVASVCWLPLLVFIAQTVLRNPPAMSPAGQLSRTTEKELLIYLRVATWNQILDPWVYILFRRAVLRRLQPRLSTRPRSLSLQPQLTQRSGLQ"}, "VIPR2": {"molecular_target": "T3, VIPR2 (UniProt P41587 24-438)", "T3 sequence (looked up)": "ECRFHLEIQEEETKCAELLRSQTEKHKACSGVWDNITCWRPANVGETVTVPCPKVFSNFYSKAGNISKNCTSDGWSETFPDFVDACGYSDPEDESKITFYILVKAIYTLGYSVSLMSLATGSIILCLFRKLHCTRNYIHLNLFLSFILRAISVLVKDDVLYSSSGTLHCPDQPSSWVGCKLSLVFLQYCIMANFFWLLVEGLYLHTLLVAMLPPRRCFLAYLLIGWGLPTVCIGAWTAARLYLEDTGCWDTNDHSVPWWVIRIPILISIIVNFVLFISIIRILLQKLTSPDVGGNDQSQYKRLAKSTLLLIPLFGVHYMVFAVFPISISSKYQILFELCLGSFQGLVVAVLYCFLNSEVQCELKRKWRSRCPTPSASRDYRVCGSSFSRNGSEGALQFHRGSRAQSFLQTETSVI"}, "CALCR-RAMP2": {"molecular_target": "CALCR-RAMP2 (UniProt P30988 25-474; O60895 43-175, limits assumed)", "sequence (P30988 25-474 limits assumed, chain 1 of 2)": "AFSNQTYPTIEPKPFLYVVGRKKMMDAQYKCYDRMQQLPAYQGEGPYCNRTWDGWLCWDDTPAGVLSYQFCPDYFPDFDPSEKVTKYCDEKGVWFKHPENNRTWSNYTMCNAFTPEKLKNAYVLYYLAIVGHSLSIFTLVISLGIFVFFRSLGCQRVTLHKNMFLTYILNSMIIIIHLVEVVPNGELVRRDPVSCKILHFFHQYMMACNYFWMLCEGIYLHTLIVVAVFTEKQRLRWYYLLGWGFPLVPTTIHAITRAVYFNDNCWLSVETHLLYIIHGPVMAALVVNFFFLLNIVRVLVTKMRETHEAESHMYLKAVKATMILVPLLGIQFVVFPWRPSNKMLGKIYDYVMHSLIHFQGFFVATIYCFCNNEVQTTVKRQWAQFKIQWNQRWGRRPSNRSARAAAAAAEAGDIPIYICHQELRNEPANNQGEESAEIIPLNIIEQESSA", "sequence (O60895 43-175 limits assumed, chain 2 of 2)": "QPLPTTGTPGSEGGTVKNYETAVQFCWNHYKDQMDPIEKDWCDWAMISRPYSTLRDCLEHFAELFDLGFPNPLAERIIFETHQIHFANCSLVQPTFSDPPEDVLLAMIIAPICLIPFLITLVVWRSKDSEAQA"}, "CRHR1": {"molecular_target": "T4, CRHR1 (UniProt P34998 24-415, limits assumed)", "T4 sequence (looked up)": "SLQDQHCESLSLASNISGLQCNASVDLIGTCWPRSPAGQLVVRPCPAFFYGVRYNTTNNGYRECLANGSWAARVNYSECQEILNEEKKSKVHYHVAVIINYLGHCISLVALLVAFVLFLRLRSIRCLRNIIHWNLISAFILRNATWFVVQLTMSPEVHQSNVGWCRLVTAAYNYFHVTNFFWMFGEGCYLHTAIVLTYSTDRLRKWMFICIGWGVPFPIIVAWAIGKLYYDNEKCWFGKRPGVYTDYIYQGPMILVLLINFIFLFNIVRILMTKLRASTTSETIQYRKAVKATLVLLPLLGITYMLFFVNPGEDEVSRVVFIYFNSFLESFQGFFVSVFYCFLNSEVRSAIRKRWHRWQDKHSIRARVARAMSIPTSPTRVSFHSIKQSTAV"}, "EDG1": {"molecular_target": "EDG1 (UniProt P21453 1-382)", "sequence (P21453 whole entry)": "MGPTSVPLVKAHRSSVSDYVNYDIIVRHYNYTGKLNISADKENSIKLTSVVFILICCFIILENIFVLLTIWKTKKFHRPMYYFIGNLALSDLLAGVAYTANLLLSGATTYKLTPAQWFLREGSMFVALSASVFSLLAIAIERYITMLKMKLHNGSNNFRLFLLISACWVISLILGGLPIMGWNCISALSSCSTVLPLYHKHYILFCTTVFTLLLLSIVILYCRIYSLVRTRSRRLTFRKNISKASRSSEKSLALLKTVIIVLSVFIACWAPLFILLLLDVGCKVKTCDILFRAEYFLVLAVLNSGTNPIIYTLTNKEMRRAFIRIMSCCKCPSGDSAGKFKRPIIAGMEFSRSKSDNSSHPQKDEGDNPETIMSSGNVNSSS"}, "EDNRA": {"molecular_target": "T5, EDNRA (UniProt P25101 21-427)", "T5 sequence (looked up)": "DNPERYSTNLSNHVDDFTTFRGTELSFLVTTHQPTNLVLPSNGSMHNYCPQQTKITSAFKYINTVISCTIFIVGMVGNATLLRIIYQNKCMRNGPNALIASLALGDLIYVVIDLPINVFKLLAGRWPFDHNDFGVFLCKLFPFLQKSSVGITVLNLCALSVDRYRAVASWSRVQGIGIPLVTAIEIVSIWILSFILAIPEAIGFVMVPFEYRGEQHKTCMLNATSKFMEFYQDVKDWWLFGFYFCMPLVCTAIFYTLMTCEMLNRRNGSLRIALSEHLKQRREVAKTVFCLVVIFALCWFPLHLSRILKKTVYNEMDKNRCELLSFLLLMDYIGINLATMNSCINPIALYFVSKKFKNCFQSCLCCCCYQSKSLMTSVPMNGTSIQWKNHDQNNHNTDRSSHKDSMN"}, "GLP1R": {"molecular_target": "GLP1R (UniProt P43220 24-463)", "sequence (P43220 24-463 limits assumed)": "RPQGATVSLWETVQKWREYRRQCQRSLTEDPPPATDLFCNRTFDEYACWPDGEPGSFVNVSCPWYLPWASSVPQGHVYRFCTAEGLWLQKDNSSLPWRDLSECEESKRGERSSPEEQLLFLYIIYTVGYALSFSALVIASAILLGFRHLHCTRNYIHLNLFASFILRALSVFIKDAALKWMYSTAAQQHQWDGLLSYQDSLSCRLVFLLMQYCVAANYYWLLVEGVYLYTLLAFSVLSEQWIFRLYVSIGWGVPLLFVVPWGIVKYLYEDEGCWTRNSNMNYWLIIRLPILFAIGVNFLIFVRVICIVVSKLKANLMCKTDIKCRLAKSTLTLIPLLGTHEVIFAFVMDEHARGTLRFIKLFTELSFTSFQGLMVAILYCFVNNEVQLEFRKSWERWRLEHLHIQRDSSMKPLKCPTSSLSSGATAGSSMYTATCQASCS"}}, "note": "Where no end group is shown, it is not given here.", "data": [{"binder": "B1", "values": [{"measurement": "% Activity, arrestin, antagonist mode, 2.5 uM", "setting": "HTR1E", "value": -3.8, "unit": "%"}, {"measurement": "% Activity, arrestin, antagonist mode, 2.5 uM", "setting": "MCHR1", "value": 5.1, "unit": "%"}, {"measurement": "% Activity, arrestin, antagonist mode, 2.5 uM", "setting": "NMBR", "value": -7.7, "unit": "%"}, {"measurement": "% Activity, arrestin, antagonist mode, 2.5 uM", "setting": "NPBWR2", "value": -1.1, "unit": "%"}, {"measurement": "% Activity, arrestin, antagonist mode, 2.5 uM", "setting": "AVPR1A", "value": -2.4, "unit": "%"}, {"measurement": "% Activity, arrestin, antagonist mode, 2.5 uM", "setting": "NPY2R", "value": -10.3, "unit": "%"}, {"measurement": "% Activity, arrestin, antagonist mode, 2.5 uM", "setting": "OPRM1", "value": -21.1, "unit": "%"}, {"measurement": "% Activity, arrestin, antagonist mode, 2.5 uM", "setting": "TBXA2R", "value": 16.2, "unit": "%"}, {"measurement": "% Activity, arrestin, antagonist mode, 2.5 uM", "setting": "VIPR2", "value": -6.7, "unit": "%"}, {"measurement": "% Activity, arrestin, antagonist mode, 2.5 uM", "setting": "CALCR-RAMP2", "value": -17.8, "unit": "%"}, {"measurement": "% Activity, arrestin, antagonist mode, 2.5 uM", "setting": "CRHR1", "value": 5.4, "unit": "%"}, {"measurement": "% Activity, arrestin, antagonist mode, 2.5 uM", "setting": "EDG1", "value": -25.9, "unit": "%"}, {"measurement": "% Activity, arrestin, antagonist mode, 2.5 uM", "setting": "EDNRA", "value": 2.5, "unit": "%"}, {"measurement": "% Activity, arrestin, antagonist mode, 2.5 uM", "setting": "GLP1R", "value": -11, "unit": "%"}]}]}
